Reference: article PMC10333598
Each block holds one molecule with its values, some of them ahead of it.

Key:
Bcl-xL (Homo sapiens) = Bcl-xL (Homo sapiens) (UniProt Q07817); test: ITC; conditions: cited from earlier work
Mcl-1 (Homo sapiens) = Mcl-1 (Homo sapiens) (UniProt Q07820); conditions: cited from earlier work
[1] = biological target: human Mcl-1 ΔPESTΔTM (human); test: NMR competition (15N SOFAST-HMQC); 15N-Mcl-1 with an excess (5 eq. total) of an equimolar mix of TCTPBH3, TCTPBH3D16I and MuleBH3, 2 h at room temperature; populations from intensities of seven reporter residues; 950 MHz, 298 K, 50 mM MES pH 6.5, 50 mM EPPS, 50 mM NaCl, 2 mM TCEP
[2] = biological target: human Mcl-1 ΔPESTΔTM (human); test: NMR titration; 15N SOFAST-HMQC of 15N-Mcl-1 (100 μM) with unlabeled BH3 peptide added (TCTPBH3 0-500 μM, up to 5 eq.; TCTPBH3D16I and MuleBH3 up to 3 eq.); 950 MHz, 308 K, 50 mM MES pH 6.5, 50 mM EPPS, 50 mM NaCl, 2 mM TCEP; KD and koff from TITAN 2D line shape analysis, two-state model
[3] = biological target: human Mcl-1 ΔPESTΔTM (human); test: SEC + other: SAXS; equimolar mix of TCTP and Mcl-1 (500 μM each), 2 h incubation, Superdex 200 10/300 in line with SAXS; 50 mM CHES pH 9, 50 mM NaCl, 2 mM TCEP; 37 °C (308 K in the legend)

Sequence of UniProt Q07820 (Q07820 whole entry): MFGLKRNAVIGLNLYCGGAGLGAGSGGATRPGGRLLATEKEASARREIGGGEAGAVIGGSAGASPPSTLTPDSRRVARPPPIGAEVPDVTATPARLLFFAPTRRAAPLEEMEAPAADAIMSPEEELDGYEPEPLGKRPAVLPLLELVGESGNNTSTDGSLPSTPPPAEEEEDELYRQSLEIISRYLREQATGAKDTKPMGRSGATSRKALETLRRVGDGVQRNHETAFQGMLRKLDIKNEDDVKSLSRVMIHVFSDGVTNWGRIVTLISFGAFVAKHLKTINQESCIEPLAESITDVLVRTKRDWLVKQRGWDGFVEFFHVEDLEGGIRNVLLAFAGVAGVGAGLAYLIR
Sequence of UniProt Q07817 (Q07817 whole entry): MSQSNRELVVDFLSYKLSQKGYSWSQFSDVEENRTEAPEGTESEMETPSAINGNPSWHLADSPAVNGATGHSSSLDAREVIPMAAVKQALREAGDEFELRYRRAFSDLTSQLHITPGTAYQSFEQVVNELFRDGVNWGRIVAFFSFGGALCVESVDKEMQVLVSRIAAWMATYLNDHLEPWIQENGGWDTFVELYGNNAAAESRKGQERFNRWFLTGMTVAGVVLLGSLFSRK

Molecule: TCTP BH3 (from UniProt P13693)
Kd (Bcl-xL (Homo sapiens)): 12 µM

Molecule: Mule BH3 (from UniProt Q7Z6Z7)
Kd (Mcl-1 (Homo sapiens)): 0.029 µM

Molecule: DEMFSDIYKIREIADGLCLEVE [TCTP BH3-like peptide (TCTPBH3)]
Kd [2]: 7.9 µM | koff [2]: 56 s⁻¹ | fold weaker affinity than TCTPBH3D16I and MuleBH3 [1]: 10 fold

Now from value to molecule:

relative population of Mcl-1 bound (in the mix of three peptides) [1]: 45%
Molecule: DEMFSIIYKIREIADGLCLEVE [TCTP BH3-like peptide D16I mutant (TCTPBH3D16I)]

stoichiometry N [3]: 1
B1: full-length human TCTP (FL-TCTP) (natural protein)
chain: MIIYRDLISHDEMFSDIYKIREIADGLCLEVEGKMVSRTEGNIDDSLIGGNASAEGPEGEGTESTVITGVDIVMNHHLQETSFTKEAYKKYIKDYMKSIKGKLEEQRPERVKPFMTGAAEQIKHILANFKNYQFFIGENMNPDGMVALLDYREDGVTPYMIFFKDGLEMEKC
